Results reported in US5580712.

Molecular target: FLAG epitope Trypsin site N-terminally tagged 9 repeat GG biopolymer (SEQ ID NO:20)

- completeness of proteolytic cleavage, from relative mobility on SDS gels: 100%
Substance: Trypsin (type XI DPCC treated) (enzyme)
